In patent US20240150457A1:

What was measured:
[1] = biological target: Cynomolgus monkey PAR-2 on cells (cynomolgus monkey); assay: cell-based or functional assay
[2] = biological target: Recombinant cynomolgus monkey PAR-2 (cynomolgus monkey); assay: SPR (Biacore), antibody captured on Protein A chip, recombinant PAR-2 injected
[3] = biological target: Cynomolgus monkey PAR-2 on cells (cynomolgus monkey); assay: cell-based or functional assay; remark: listed apart in the source

IC50 mean, calcium flux at SLIGKV EC80 (Nomad line) [1] | IC50 mean, β-arrestin at SLIGKV EC80 (Nomad line) [1] | Kd [2] | SLIGKV EC80 mean, calcium flux [3] | SLIGKV EC80 mean, β-arrestin [3] | Binder
3.98 nM | 15.2 nM | 4.45 nM |  |  | P24E1102 (antibody, human IgG4 S228P, kappa, V domains shown) VH: QVQLVQSGAEVKKPGSSVKVSCKASGFSLSSYAISWVRQAPGQGLEWMGVIWGNQNVYYAQKFQGRVTITADESTSTAYMELSSLRSEDTAVYYCARWKGYKDYPFDYWGQGTLVTVSS VL: EIVLTQSPATLSLSPGERATLSCRASQNVYKWLDWYQQKPGQAPRLLIYNANTRATGIPARFSGSGSGRDFTLTISSLEPEDFAVYYCQQHHSGWTFGGGTKVEIKR
 |  |  | 39000 nM | 107000 nM | SLIGKV
